Data: article PMC4569848

Tests used:
[1] = target: β-arrestin-1-R7-F2Y (UniProt P17870); experiment: 19F-NMR
[2] = target: β-arrestin-1–Y63-F2Y (UniProt P17870); experiment: 19F-NMR
β-arrestin-1–Y63-F2Y, sequence (P17870 whole entry, stated change not applied): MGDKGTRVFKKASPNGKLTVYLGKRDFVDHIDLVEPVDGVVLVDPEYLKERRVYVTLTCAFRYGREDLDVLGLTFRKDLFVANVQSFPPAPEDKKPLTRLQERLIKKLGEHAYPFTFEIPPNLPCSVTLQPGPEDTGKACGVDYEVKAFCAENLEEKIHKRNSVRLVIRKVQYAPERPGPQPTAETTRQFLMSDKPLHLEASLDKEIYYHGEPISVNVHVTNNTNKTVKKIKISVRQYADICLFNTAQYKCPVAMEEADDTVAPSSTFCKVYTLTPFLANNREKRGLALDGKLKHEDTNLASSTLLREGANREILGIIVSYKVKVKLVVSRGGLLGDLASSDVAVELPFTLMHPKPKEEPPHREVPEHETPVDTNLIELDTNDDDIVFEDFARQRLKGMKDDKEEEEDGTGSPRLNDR

β-arrestin-1-R7-F2Y, sequence (P17870 other isoform, or with tags, fused parts or gaps R7-F2Y): as the sequence (P17870 whole entry, stated change not applied) above, with R7Y counted along it

Row | other: 19F chemical shift change [1] | other: 19F chemical shift change [2] | Substance
1 | 0.01 p.p.m. | 0.89 p.p.m. | GRK6pp (GRK6-phosphorylated β2AR C-tail) E369A
2 | 0.09 p.p.m. | 0.02 p.p.m. | GRK6pp (GRK6-phosphorylated β2AR C-tail) pS355S
